Assay results: patent publication US7090843B1, “Recombinant anti-CD30 antibodies and uses thereof” (Seattle Genetics, Inc., priority 2000, dated 2006)
Read-outs that look alike come from different tables or passages of the source.

B1: HeFi-1: anti-CD30 mAb produced by immunizing mice with the L428 Hodgkin's disease cell line (antibody, V domains shown)
VH: EVKLVESGGGLVQPGGSLRLSCATSGFTFSDYYMNWVRQPPGKALEWLGFIRNKANGYTTEFSASVMGRFTISRDDSQSILYLQMNTLRAEDSATYYCARDPPYGNPHYYAMDYWGQGTSVTVSS
VL: DIVLTQSPASLAVSLGQRATISCRASKSVSASGYNYMHWYQQKAGQPPKLLIHLASNLESGVPARFSGSGSGTDFTLNIHPVEEEDASTYYCQHSGELPFTFGSGTKLEIK
B2: AC10: murine anti-CD30 monoclonal antibody prepared against human NK-like cell line YT; hybridoma deposit ATCC PTA-6679 (antibody, listed as Mus musculus, V domains shown)
VH: QIQLQQSGPEVVKPGASVKISCKASGYTFTDYYITWVKQKPGQGLEWIGWIYPGSGNTKYNEKFKGKATLTVDTSSSTAFMQLSSLTSEDTAVYFCANYGNYWFAYWGQGTQVTVSA
VL: DIVLTQSPASLAVSLGQRATISCKASQSVDFDGDSYMNWYQQKPGQPPKVLIYAASNLESGIPARFSGSGSGTDFTLNIHPVEEEDAATYYCQQSNEDPWTFGGGTKLEIK
B3: cAC10: chimeric antibody: AC10 heavy and light chain variable regions with human gamma 1 and kappa constant regions (antibody)
heavy: B2 VH
light: B2 VL
modifications: left off: a dimerising Fc or GST
notes: chimeric antibody: AC10 heavy and light chain variable regions with human gamma 1 and kappa constant regions

Key:
[1] = system: HD cell line L428; assay: Chemotherapeutic drugs on L428 cells pre-cultured with or without cross-linked AC10 (3H-thymidine); format: cell-based
Experimental: L428 cells were cultured for 24 hours in the presence or absence of 0.1 μg/ml anti-CD30 antibody, AC10, crosslinked by the addition of 20 μg/ml goat anti-mouse IgG antibodies. After the 24-hour culture period, the cells were harvested and washed with phosphate buffered saline (PBS). The cells were then plated into 96-well flat-bottom tissue culture plates at 5×10^3 cells/well and mixed with various dilutions of chemotherapeutic drugs. After a 1-hour exposure to the drugs the cells were washed twice, followed by the addition of fresh culture media. The plates were then incubated at 37° C. for 72 hours followed by a 4-hour incubation with 0.5 μCi/well ^3H-thymidine. The inhibition of growth was determined by comparing the amount of ^3H-thymidine incorporated into treated cells to the amount incorporated into untreated control cells.
To evaluate the effect of the anti-CD30 mAb in combination with chemotherapeutic drugs, L428 cells were incubated for 24 hours in either the absence of antibody or the presence of AC10 at 0.1 μg/ml with 20 μg/ml goat anti-mouse IgG to provide crosslinking for the primary antibody. After this incubation the cells were plated into 96-well tissue culture plates at 5×10^3 cells/well in the presence of dilutions of chemotherapeutic drugs including doxorubicin, cisplatin, and etoposide (Table 3). The EC50, concentration of drug needed to inhibit the incorporation of ^3H-thymidine by 50% compared to untreated control cells, was then determined for cells treated with the drugs alone or the combinations of drug and antibody.

[2] = system: ALCL tumor xenografts; details: Tian et al., 1995; cited from earlier work
[3] = system: L540; details: co-culture with mAb; cited from earlier work
[4] = system: L428; details: co-culture with mAb; cited from earlier work
[5] = system: L428; assay: Proliferation assay (3H-thymidine incorporation), immobilized or cross-linked anti-CD30 mAbs; format: cell-based
Experimental: (§1) Proliferation assays: CD30 expressing cell lines were cultured in flat-bottom 96-well plates at a density of 50,000 or 5,000 cells/well in growth media (RPMI with 10% fetal bovine serum (FBS) for cell lines L428, KM-H2 and Karpas 299, and RPMI/20% FBS for cell lines HDLM-2 and L540. The cell lines were cultured in the absence or presence of cross-linked soluble anti-CD30 mAbs or immobilized anti-CD30 mAbs, as described below.
(§2) Antibody cross-linking in solution: To cross-link the anti-CD30 antibodies in solution, various dilutions of AC10 or HeFi-1 were titrated into 96-well flat bottom tissue culture plates in the absence or presence of 20 μg/ml polyclonal goat anti-mouse IgG antibodies. Hodgkin's disease cell lines were then added to the plates at either 50,000 or 5,000 cells/well. The plates were incubated at 37° C. for 72 hours and were labeled with ^3H-thymidine, 1 μCi/well, for the final 5 hours.
(§3) Antibody immobilization: Antibody immobilization was obtained by coating wells with antibody in 50 mmol/L Tris buffer (pH 8.5) for 18 hours at 4° C. Prior to the addition of cells, wells were washed twice with PBS to remove unbound mAb. 50,000 or 5,000 cells in a total volume of 200 μl were added to each well. Proliferation was determined by uptake of ^3H-thymidine (0.5 μCi/well) during the final 8 hours of a 72 hour culture period.

[6] = system: L540; assay: as above; format: cell-based
Experimental: as §1, §2, §3

[7] = system: HDLM-2; assay: as above; format: cell-based
Experimental: as §1, §2, §3

[8] = system: KM-H2; assay: as above; format: cell-based
Experimental: as §1, §2, §3

[9] = system: L540 cells; assay: Co-cultivation of L540 cells with antibodies, isolation of sCD30 from culture supernatant; format: cell-based; details: L540 cells co-cultivated with antibody
Source text: At the Fourth Workshop on Leukocyte Differentiation Antigens in Vienna in February 1989, monoclonal antibodies were submitted by three different laboratories and finally characterized as belonging to the CD30 group. […] However, the antibody Ber-H2 also labels a subpopulation of plasma cells (Schwarting et al., 1988, Blood 74:1678–1689) and G. Pallesen (G. Pallesen, 1990, Histopathology 16:409–413) describes, on page 411, that Ber-H2 is cross-reacting with an epitope of an unrelated antigen which is altered by formaldehyde.

[10] = system: L540cy Hodgkin's disease xenografts; assay: Disseminated L540cy Hodgkin's disease xenograft; format: in vivo, SCID mice; details: 1 mg/kg/injection i.p. q2d×10 from d1 (FIG. 5A)
Experimental: (§4) Human tumor xenograft models: Female C.B-17 SCID mice, obtained from Taconic (Germantown, N.Y.) at 4–6 weeks of age, were used for all efficacy studies. To establish xenograft models of Hodgkin's disease, L540cy (HD) cells were harvested from cell culture, washed in ice cold phosphate buffered saline (PBS), resuspended in PBS, and maintained on ice until implantation. For disseminated disease models, mice were injected intravenously through the tail vein with 10^7 L540cy cells. Solid tumor xenografts were established by injecting mice subcutaneously (s.c.) with 2×10^7 L540cy cells. For therapeutic evaluation the indicated treatment doses and schedules were used.
Administration of AC10 and HeFi-1: Disseminated L540cy tumor bearing mice received 10^7 cells through the tail vein on d0 followed by therapy initiated on d1. Treated mice received i.p. injections of either AC10 or HeFi-1 every two days for a total of 10 injections, q2d×10, at 1 mg/kg/injection.

[11] = system: L540cy Hodgkin's disease xenografts; assay: Subcutaneous L540cy Hodgkin's disease xenograft; format: in vivo, SCID mice; details: tumors >150 mm^3 at start, 2 mg/kg twice per week, five injections (FIG. 6)
Experimental: as §4
For the subcutaneous L540cy model, mice were injected s.c. with 2×10^7 cells and were observed daily for solid tumor formation. When tumors were palpable, the animals were randomly distributed into groups and received either AC10 or HeFi-1 q2d×10 at 2 mg/kg/injection.
To evaluate the efficacy of cAC10 in vivo, SCID mice were implanted subcutaneously with L540cy cells as described above. When the tumors reached an average size of greater than 150 mm^3 the mice were divided into groups that were either untreated or treated with 2 mg/kg cAC 10 twice per week for a total of five injections. The tumors in the untreated mice rapidly grew to an average size of greater than 600 mm^3 (FIG. 6).

[12] = Homo sapiens, L-428, L428, combination of drug and AC10 0.1 μg/ml cross-linked, read-out: EC50 (after incubation with AC10)
[13] = Homo sapiens, L-428, L428, drug alone, read-out: EC50 (drug alone)
[14] = Homo sapiens, L-428, L428, 24 hours with 0.1 μg/ml AC10 cross-linked with 20 μg/ml goat anti-mouse IgG, then 1-hour drug exposure, 72 hours, read-out: EC50, nM with AC10
[15] = Homo sapiens, L-428, L428, no antibody, 1-hour drug exposure, 72 hours, read-out: EC50, nM without AC10
[16] = soluble mAb 0.1 μg/ml cross-linked with 20 μg/ml goat anti-mouse IgG, 5×10^4 cell/well, 72 hours (FIG. 3)
[17] = soluble mAb cross-linked with 20 μg/ml goat anti-mouse IgG, 5×10^3 cell/well, 72 hours (FIG. 4)
[18] = immobilized mAb 10 μg/ml, 5,000 cells/well, 72 hours (FIG. 2)
[19] = immobilized mAb 10 μg/ml, 50,000 cells/well, 72 hours (FIG. 1)

Molecule	EC50 [1, 12] [nM]	EC50 [1, 13] [nM]	EC50 [1, 14] [nM]	EC50 [1, 15] [nM]	cell growth (3H-thymidine incorporation) [5, 16]	cell growth (3H-thymidine incorporation) [5, 17]	cell growth (3H-thymidine incorporation) [6, 16]	cell growth (3H-thymidine incorporation) [6, 17]	cell growth (3H-thymidine incorporation) [7, 16]	cell growth (3H-thymidine incorporation) [7, 17]	cell growth (3H-thymidine incorporation) [8, 16]	signs of disease [10]	other results
COc1cccc2c1C(=O)c1c(O)c3c(c(O)c1C2=O)C[C@@](O)(C(=O)CO)C[C@@H]3O[C@H]1C[C@H](N)[C@H](O)[C@H](C)O1 [Doxorubicin]	~9	~45	45	9									
N.N.[Cl][Pt][Cl] [Cisplatin]													EC50 ([1]; L428, combination of drug and AC10 0.1 μg/ml cross-linked, read-out: EC50 (after incubation with AC10)): ~500 nM; EC50 ([1]; L428, drug alone, read-out: EC50 (drug alone)): ~1500 nM; EC50 ([1]; L428, 24 hours with 0.1 μg/ml AC10 cross-linked with 20 μg/ml goat anti-mouse IgG, then 1-hour drug exposure, 72 hours, read-out: EC50, nM with AC10): 1500 nM; EC50 ([1]; L428, no antibody, 1-hour drug exposure, 72 hours, read-out: EC50, nM without AC10): 500 nM
COc1cc([C@@H]2c3cc4c(cc3[C@@H](O[C@@H]3O[C@@H]5CO[C@@H](C)O[C@H]5[C@H](O)[C@H]3O)[C@H]3COC(=O)[C@H]23)OCO4)cc(OC)c1O [Etoposide]	~600	~1500	1500	600									
B1					growth inhibited	growth inhibited	growth inhibited	growth inhibited	growth inhibited	growth inhibited	growth inhibited	no signs of disease	survival of SCID mice bearing ALCL tumor xenografts [2]: prolonged survival; viability of the cell line on co-culture [3]: failed to reveal any direct effect; viability of the cell line on co-culture [4]: failed to reveal any direct effect; release of the sCD30 [9]: weakly enhanced
B2					growth inhibited	growth inhibited	growth inhibited	growth inhibited	growth inhibited	growth inhibited	growth inhibited	no signs of disease	cell growth (3H-thymidine incorporation) [5, 18]: growth inhibition; cell growth (3H-thymidine incorporation) [5, 19]: inhibition of cell growth; cell growth (3H-thymidine incorporation) [6, 18]: growth inhibition; cell growth (3H-thymidine incorporation) [6, 19]: inhibition of cell growth; cell growth (3H-thymidine incorporation) [7, 18]: growth inhibition; cell growth (3H-thymidine incorporation) [7, 19]: inhibition of cell growth; cell growth (3H-thymidine incorporation) [8, 18]: growth inhibition; cell growth (3H-thymidine incorporation) [8, 19]: inhibition of cell growth; cell growth (3H-thymidine incorporation) ([8]; soluble mAb 0.11 g/ml cross-linked with 20 μg/ml goat anti-mouse IgG, 5×10^3 cell/well, 72 hours (FIG. 4)): growth inhibited
B3													average tumor size [11]: remained about the same size
